T1: Dcc1 C-terminus WT (Saccharomyces cerevisiae, UniProt P25559 90-380)
T1 sequence: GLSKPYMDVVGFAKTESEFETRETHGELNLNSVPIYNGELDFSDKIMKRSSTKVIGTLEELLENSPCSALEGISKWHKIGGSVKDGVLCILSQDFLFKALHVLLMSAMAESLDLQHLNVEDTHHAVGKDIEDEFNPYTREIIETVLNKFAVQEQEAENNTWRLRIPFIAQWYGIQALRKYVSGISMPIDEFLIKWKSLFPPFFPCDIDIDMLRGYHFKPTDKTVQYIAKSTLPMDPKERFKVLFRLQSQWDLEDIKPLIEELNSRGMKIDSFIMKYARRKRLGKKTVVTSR

B1: 25-mer oligo d(T) (ssDNA)
DNA: TTTTTTTTTTTTTTTTTTTTTTTTT
B2: 22-mer dsDNA (dsDNA)
DNA 1: TCTCCACAGGAAACGGAGGGGT
DNA 2: ACCCCTCCGTTTCCTGTGGAGA

Molecular target: T1, Dcc1 C-terminus WT
Assay: EMSA; 1 uM DNA; EMSA, 6% native gel in 0.5x TBE, 4 C, DNA 1 uM unless stated; binding buffer, salt and pH not stated (protein storage 10 mM Tris pH 7.5, 150 mM NaCl, 0.5 mM TCEP for the complex)
Conditions: protein: recombinant, tags: expressed by the complex protocol

Binder | binding result (label: 5' 6-FAM) | binding result (label: 5' 6-FAM on sense strand)
B1 | binds | 
B2 |  | binds
